Measurements: patent US12643926B2, “LysM receptor motifs” (Aarhus Universitet, priority 2020, dated 2026)

Test: Biolayer interferometry of LYS11 ectodomains binding to CO5
Conditions: BLI; result in words
Protocol: Binding of L. japonicus LYS11 ectodomain and domain-swapped versions of L. japonicus LYS11 ectodomain to ligands was measured on an Octet RED 96 system (Pall ForteBio). The ligands used were CO5 chitin oligomer (corresponding to the backbone of S. meliloti Nod factor LCO-V), M. loti Nod factor LCO, and S. meliloti Nod factor LCO. S. meliloti LCO consists of a tetrameric/pentameric N-acetylglucosamine backbone that is O-sulfated on the reducing terminal residue, O-acetylated on the non-reducing terminal residue, and mono-N-acylated by unsaturated C16 acyl groups. M. loti LCO is a pentameric N-acetylglucosamine with a cis-vaccenic acid and a carbamoyl group at the non-reducing terminal residue together with a 2,4-O-acetylfucose at the reducing terminal residue. Biotinylated ligand conjugates were immobilized on streptavidin biosensors (kinetic quality, Pall ForteBio) at a concentration of 125-250 nM for 5 minutes. Data analysis was performed in GraphPad Prism 6 software (GraphPad Software, Inc.). Equilibrium dissociation constants derived from the steady-state were determined by applying a non-linear regression (one site, specific binding) to the response at equilibrium plotted against the protein concentration. Kinetic parameters were determined by non-linear regression (association followed by dissociation) on the subtracted data. […]

B1: L. japonicus LYS11 ectodomain: L. japonicus LYS11 ectodomain (residues 26-234 of SEQ ID NO: 255), 6xHis tag, insect cell expressed (protein)
chain: LAQLSHTNGTNFSCPVDSPPSCDTYVTYFAQSPNFLTLTSISDLFDTSPLSIARASNIKDENQNLVPGQLLLVPVTCACSGSNSFSNISHMIKEGESYYYLSTTSYENLTNWETVQDSNPNYNPYLLPVGIKVVIPLFCKCPSNYHLNKGIEYLITYVWHNNDNVSLVASKFGVSTQDIISENNFSHQNFTAATNFPILIPVTQLPSLS
modifications: 6xHis tag; Xaa = hydrophobic patch residues; Xaa = residues immediately adjacent to hydrophobic patch residues
For B1, the “binding to CO5 (chitin)” value was “able to bind CO5”.
